T1: Raf-1 (331-345) peptide
T1 chain: RPRGQRDSSFFWEIE

B1: full-length PAK3 from rat spleen lysate (protein)
chain: SDNGELEDKPPAPPVRMSSTIFSTGGKDPLSANHSLKPLPSVPEEKKPRNKIISIFSSTEKGSKKKEKERPEISPPSDFEHTIHVGFDAVTGEFTGMPEQWARLLQTSNITKLEQKKNPQAVLDVLKFYDSNTVKQKYLSFTPPEKDGFPSGTPALNTKGSETSAVVTEEDDDDEDAAPPVIAPRPDHTKSIYTRSVIDPIPAPVGDSNVDSGAKSSDKQKKKAKMTDEEIMEKLRTIVSIGDPKKKYTRYEKIGQGASGTVFTATDVALGQEVAIKQINLQKQPKKELIINEILVMKELKNPNIVNFLDSYLVGDELFVVMEYLAGGSLTDVVTETCMDEAQIAAVCRECLQALEFLHANQVIHRDIKSDNVLLGMEGSVKLTDFGFCAQITPEQSKRSTMVGTPYWMAPEVVTRKAYGPKVDIWSLGIMAIEMVEGEPPYLNENPLRALYLIATNGTPELQNPEKLSPIFRDFLNRCLEMDVEKRGSAKELLQHPFLKLAKPLSSLTPLILAAKEAMKSNR
B2: recombinant His-tagged mouse PAK3 from Sf9 cells (protein)
chain: MSDSLDNEEKPPAPPLRMNSNNRDSSALNHSSKPLPMAPEEKNKKARLRSIFPGGGDKTNKKKEKERPEISLPSDFEHTIHVGFDAVTGEFTGIPEQWARLLQTSNITKLEQKKNPQAVLDVLKFYDSKETVNNQKYMSFTSGDKSAHGYIAAHQSNTKTASEPPLAPPVSEEEDEEEEEEEDDNEPPPVIAPRPEHTKSIYTRSVVESIASPAAPNKEDIPPSAENANSTTLYRNTDRQRKKSKMTDEEILEKLRSIVSVGDPKKKYTRFEKIGQGASGTVYTALDIATGQEVAIKQMNLQQQPKKELIINEILVMRENKNPNIVNYLDSYLVGDELWVVMEYLAGGSLTDVVTETCMDEGQIAAVCRECLQALDFLHSNQVIHRDIKSDNILLGMDGSVKLTDFGFCAQITPEQSKRSTMVGTPYWMAPEVVTRKAYGPKVDIWSLGIMAIEMVEGEPPYLNENPLRALYLIATNGTPELQNPERLSAVFRDFLNRCLEMDVDRRGSAKELLQHPFLKLAKPLSSLTPLIIAAKEAIKNSSR

Legend:
[1] = target: Raf-CR3[A338A339], P04049
[2] = target: Raf-CR3[D338E339], P04049
[3] = target: Raf-CR3 (wild type), recombinant Raf-1 catalytic fragment, calmodulin binding protein fusion, P04049
Raf-1 (331-345) peptide = target: T1, Raf-1 (331-345) peptide

Row | Protein | phosphate incorporation into Raf-CR3 [1] | phosphate incorporation into Raf-CR3 [2] | phosphate incorporation into Raf-CR3 [3] | phosphorylation of Raf-CR3 [3] | phosphorylation of the Raf-1 peptide (Raf-1 (331-345) peptide)
1 | B1 | reduced ability of immunoprecipitated PAK3 to phosphorylate the Raf-CR3[A338,A339] or Raf-CR3[D338,E339] mutant proteins | reduced ability of immunoprecipitated PAK3 to phosphorylate the Raf-CR3[A338,A339] or Raf-CR3[D338,E339] mutant proteins | 4-fold more phosphate into wild type Raf-CR3 than into the non-phosphorylatable Raf-CR3[D338E339] or Raf-CR3[A338A339] site mutants | – | –
2 | B2 | – | – | – | strongly phosphorylated wild type Raf-CR3 | Recombinant His-tagged mouse PAK3 from Sf9 cells phosphorylated the Raf-1 peptide
